Common to all, as to assay: cryo-EM structure
Experiment [1] addresses Bufavirus 3 (BuV3) VP2, assembled as virus-like particles (Bufavirus 3 (BuV3)).
For experiment [2], the target named is Bufavirus 1 (BuV1) VP2, assembled as virus-like particles (Bufavirus 1 (BuV1)).
For experiment [3], the target named is Bufavirus 2 (BuV2) VP2, assembled as virus-like particles (Bufavirus 2 (BuV2)).

By stoichiometry N is commonly meant the number of molecules, sites or subunits per partner or assembly. “Bufavirus 3 (BuV3) VP2, assembled as virus-like particles (natural protein)” gave a stoichiometry N in experiment [1] of 60.
In the case of “Bufavirus 1 (BuV1) VP2, assembled as virus-like particles (natural protein)”, in experiment [2], the stoichiometry N was determined as 60.
In turn, “Bufavirus 2 (BuV2) VP2, assembled as virus-like particles (natural protein)” came in with a stoichiometry N in experiment [3] of 60.
